According to patent US8080523 (dated 2011):

B1: Kv1.1 (other)
chain: MTVMSGENADEASTAPGHPQDGSYPRQADHDDHECCERVVINISGLRFETQLKTLAQFPNTLLGNPKKRMRYFDPLRNEYFFDRNRPSFDAILYYYQSGGRLRRPVNVPLDMFSEEIKFYELGEEAMEKFREDEGFIKEEERPLPEKEYQRQVWLLFEYPESSGPARVIAIVSVMVILISIVIFCLETLPELKDDKDFTGTIHRIDNTTVIYTSNIFTDPFFIVETLCIIWFSFELVVRFFACPSKTDFFKNIMNFIDIVAIIPYFITLGTEIAEQEGNQKGEQATSLAILRVIRLVRVFRIFKLSRHSKGLQILGQTLKASMRELGLLIFFLFIGVILFSSAVYFAEAEEAESHFSSIPDAFWWAVVSMTTVGYGDMYPVTIGGKIVGSLCAIAGVLTIALPVPVIVSNFNYFYHRETEGEEQAQLLHVSSPNLASDSDLSRRSSSTISKSEYMEIEEDMNNSIAHYRQANIRTGNCTTADQNCVNKSKLLTDV
B2: Kv1.3 (other)
chain: MTVVPGDHLLEPEAAGGGGGDPPQGGCGSGGGGGGCDRYEPLPPALPAAGEQDCCGERVVINISGLRFETQLKTLCQFPETLLGDPKRRMRYFDPLRNEYFFDRNRPSFDAILYYYQSGGRIRRPVNVPIDIFSEEIRFYQLGEEAMEKFREDEGFLREEERPLPRRDFQRQVWLLFEYPESSGPARGIAIVSVLVILISIVIFCLETLPEFRDEKDYPASPSQDVFEAANNSTSGAPSGASSFSDPFFVVETLCIIWFSFELLVRFFACPSKATFSRNIMNLIDIVAIIPYFITLGTELAERQGNGQQAMSLAILRVIRLVRVFRIFKLSRHSKGLQILGQTLKASMRELGLLIFFLFIGVILFSSAVYFAEADDPSSGFNSIPDAFWWAVVTMTTVGYGDMHPVTIGGKIVGSLCAIAGVLTIALPVPVIVSNFNYFYHRETEGEEQAQYMHVGSCQHLSSSAEELRKARSNSTLSKSEYMVIEEGGMNHSAFPQTPFKTGNSTATCTTNNNPNSCVNIKKIFTDV

Binder	Kd (ShK(L1)) [nM]	Kd (ShK(L3)) [nM]	Kd (ShK(D2)) [nM]	Kd (ShK(D3)) [nM]
B1	1	1.1	1.1	
B2				0.07
